According to patent US20210403552A1 (SHANGHAI GENBASE BIOTECHNOLOGY, published 2021):
Changes are numbered by the printed parent chain. Where two headings read alike, the source gives them in different places.

T1: mouse CLDN18.2 (mouse, UniProt P56857 10-264)
T1 construct: over-expressed on HEK293T cells by lentivirus; also called mCLDN18.2; murine CLDN18.2
T1 chain: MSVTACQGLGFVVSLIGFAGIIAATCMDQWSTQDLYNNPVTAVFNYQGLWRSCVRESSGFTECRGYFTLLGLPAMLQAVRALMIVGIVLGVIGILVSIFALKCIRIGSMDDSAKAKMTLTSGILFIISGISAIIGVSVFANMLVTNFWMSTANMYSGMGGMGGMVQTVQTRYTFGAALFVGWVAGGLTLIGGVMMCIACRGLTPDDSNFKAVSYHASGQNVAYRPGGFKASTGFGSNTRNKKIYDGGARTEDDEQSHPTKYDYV

B1: 44F7-chIgG1 (antibody, V domains shown)
VH: QVQLQQSGAELVRPGASVKMSCKASGYTFTSYNMHWVKQAPRQGLEWIGTIYPGNGDTSYNQKFKGKATLTVDKSSSTAYMQLSSLTSEDSAVYFCARGGYYGNSLDYWGQGTTLTVSS
VL: DIQMTQSPSSLTVTAGEKVTMSCKSSQSLLNSGNQKNYLTWYQQKPGQPPKLLIYWASTRESGVPDRFTGSGSGTDFTLTISSVQAEDLAVYYCQNAYYYPFTFGSGTKLEIKR
notes: human-mouse chimeric antibody, human IgG1/kappa constant regions; also called parental chimeric antibody
B2: 44A8-chIgG1 (antibody, V domains shown)
VH: EVRLQQSGPELVKPGASVKMSCKASGYTFTDYNMHWVKQSHGKSLEWIGYINPKNGGIRYNQKFTGKATLTVNKSSSTAYMELRSLTSEDSAVYYCARGGYYGNTLDNWGQGTSVTVSS
VL: B1 VL with Q3V, V13L, R60S, V91I, Y99F, F102W, S106G
notes: human-mouse chimeric antibody, human IgG1/kappa constant regions
B3: 37B1-chIgG1 (antibody, V domains shown)
VH: EVRLQQSGPELVKPGASVKMSCKASGYSFTDYNMHWVKQSHGKSPEWVGYINPNKGGTGYNQKFKGKATLTVNKSSSTANMELRSLTSEDSAVYYCARIWYGNSFAYWGQGTLVTVSA
VL: B1 VL with I2V, Q3V, Y93F, A97D, Y99F
notes: as for B2
B4: 27B5-chIgG1 (antibody, V domains shown)
VH: QVQLQQPGTELVKPGASVKLSCKASGYTFTSYWMHWVKQRPGQGLEWIGNIHPSNGGSNHNEKFKSKATLTVDKSSSTAYMQLSSLTSEDSAVYYCAPIYYGNSLAYWGHGTLVTVSA
VL: B1 VL with I2V, Q3V, I54L, A97S, Y99F
notes: as for B2
B5: 175D10 (antibody, human IgG1, kappa, V domains shown)
VH: QVQLQQPGAELVRPGASVKLSCKASGYTFTSYWINWVKQRPGQGLEWIGNIYPSDSYTNYNQKFKDKATLTVDKSSSTAYMQLSSPTSEDSAVYYCTRSWRGNSFDYWGQGTTLTVSS
VL: B1 VL with Q3V, A97D, Y99S
B6: 1D10 (antibody, V domains shown)
VH: QVQLQQPGAELVKPGASVKLSCKASGYTFTSYWMHWVKQRPGQGLEWIGMIYPNSGSINYNEKFKNKATLTVDKSSSTAYMQLSSLTSEDSAVYFCSVYFDYWGQGTTLTVSS
VL: DIQGTQSPSSLSASLGERVSLTCRASQDIGSSLNWLQQEPDGTIKRLIYATSSLDSGVPKRFSVSRSGSDYSLTISSLESEDFVDYYCLQYASSPPTFGGGTKLEIK
notes: murine monoclonal antibody purified from hybridoma culture supernatant; also called ID10
B7: 5F9 (antibody, V domains shown)
VH: B6 VH with P7S, Y52H, G56V, I58T, N66S, F95Y, S97A
VL: B6 VL with G4V, T51S, D55N, S93T
notes: murine monoclonal antibody purified from hybridoma culture supernatant
B8: 7004-09hu09 (antibody, human IgG1, kappa, V domains shown)
VH: QVQLVQSGAEVKKPGASVKVSCKASGYTFTSYNMHWVRQAPGQGLEWMGTIYPGNGDTSYNQKFQGRVTMTRDKSTSTVYMELSSLRSEDTAVYFCARGGYYGNSLDYWGQGTLVTVSA
VL: DIVMTQSPDSLAVSLGERATINCKSSQSLLNSGNQKNYLAWYQQKPGQPPKLLIYWASTRESGVPDRFSGSGSGTDFTLTISSLQAEDVAVYYCQNAYYYPFTFGQGTKLEIKR
notes: humanized antibody of murine 44F7, human IgG1/kappa constant regions
B9: 7004-09hu15 (antibody, human IgG1, kappa, V domains shown)
VH: B8 VH with N33Y
VL: B8 VL with L29V
notes: as for B8
B10: 7004-09hu10 (antibody, human IgG1, kappa, V domains shown)
VH: B8 VH with N33Y
VL: B8 VL with A40T
notes: as for B8

Tests used:
human CLDN18.2 [1] = biological target: human CLDN18.2 (human); test: cell-based or functional assay
human CLDN18.2 [2] = biological target: human CLDN18.2 (human); test: cell-based or functional assay; remark: listed apart in the source
human CLDN18.2 [3] = biological target: human CLDN18.2 (human); test: cell-based or functional assay; remark: listed apart in the source
human CLDN18.2 [4] = biological target: human CLDN18.2 (human); test: cell-based or functional assay; remark: listed apart in the source
human CLDN18.2 [5] = biological target: human CLDN18.2 (human); test: cell-based or functional assay; remark: listed apart in the source
human CLDN18.2 [6] = biological target: T2, human CLDN18.2 (human); test: imaging cytometry (% fluorescent cells), HEK293T-hCLDN18.2 cells
T2 construct: over-expressed on HEK293T or OCUM-1 cells by lentivirus; KATO-III and NUGC4 gastric cancer cells express it naturally; also called hCLDN18.2; hCLDNA18.2
Procedure: (§1) 10,000 cells were plated in 100 μL of DMEM containing 10% FBS per well in a flat-bottomed 96-well plate. After the cells adhered or were settled to the bottom of the wells overnight, the supernatant was removed on the next day. 3-Fold gradient dilution of antibody was performed by diluting 1/3 of the total volume (i.e., 100 μL) in 200 μL of DMEM. 100 μL of the diluted antibody (the supernatants of fused clones or subclones was used in the screening) was added to each well of the cell plate, 100 μL of DMEM was added to the corresponding negative control well, and incubation was carried out for 1 hour at room temperature. After removing the supernatant, 100 μL of secondary antibody (5 μg/mL, diluted in DMEM) was added to each well, and incubated at room temperature for 0.5 hours. The supernatant was removed after staining, followed by washing with PBS once. 100 μL of PBS was added to each well, and then reading was carried out on the cytometer.
(§2) A full-field scanning cytometer (Nexcelom, Celigo® Image Cytometer) was used to measure the readings of the experimental plate. During the measurement, high-speed scanning imaging of the cells in the well was simultaneously performed in the green fluorescent channel corresponding to the secondary antibody and in the bright field channel. The cells that bound the antibody were counted in the image obtained from the green fluorescent channel under the parameters set in accordance with the morphology and fluorescence intensity of the fluorescently labeled cells, and the adhered cells were counted in the image obtained from the bright field channel under the parameters set in accordance with the morphology of the cells. […] The data analysis was performed using GraphPad.

human CLDN18.2 [7] = biological target: T2, human CLDN18.2; test: as above; remark: listed apart in the source
Procedure: as §1, §2

human CLDN18.2 [8] = biological target: T2, human CLDN18.2; test: imaging cytometry (% fluorescent cells), OCUM1-hCLDN18.2 cells
Source text: (§3) HEK293T-hCLDN18.2 and OCUM-1-hCLDN18.2 expressing human CLDN18.2 (hCLDN18.2), or HEK293T-mCLDN18.2 expressing mouse CLDN18.2 (mCLDN18.2) and the corresponding negative control cell line HEK293T were used; or HEK293T-hCLDN18.1 and CHOS-hCLDN18.1 expressing human CLDN18.1 (hCLDN18.1) were used. DyLight488 goat anti-mouse IgG (Abcam, Catalog No. ab97015) or DyLight488 goat anti-human IgG (Abcam, Catalog No. ab97003) was used as secondary antibody. Binding curves were generated by using the following method.
as §1
(§4) A full-field scanning cytometer (Nexcelom, Celigo® Image Cytometer) was used to measure the readings of the experimental plate. During the measurement, high-speed scanning imaging of the cells in the well was simultaneously performed in the green fluorescent channel corresponding to the secondary antibody and in the bright field channel. The cells that bound the antibody were counted in the image obtained from the green fluorescent channel under the parameters set in accordance with the morphology and fluorescence intensity of the fluorescently labeled cells, and the adhered cells were counted in the image obtained from the bright field channel under the parameters set in accordance with the morphology of the cells.

mouse CLDN18.2 = biological target: T1, mouse CLDN18.2; test: imaging cytometry (% fluorescent cells), HEK293-mCLDN18.2 cells
Source text: as §3, §1, §4

human CLDN18.1 [9] = biological target: T3, human CLDN18.1 (human, UniProt P56856 1-261); test: imaging cytometry (% fluorescent cells), CHOS-hCLDN18.1 cells
T3 construct: over-expressed on HEK293T or CHOS cells by lentivirus; also called hCLDN18.1
T3 sequence (P56856 whole entry): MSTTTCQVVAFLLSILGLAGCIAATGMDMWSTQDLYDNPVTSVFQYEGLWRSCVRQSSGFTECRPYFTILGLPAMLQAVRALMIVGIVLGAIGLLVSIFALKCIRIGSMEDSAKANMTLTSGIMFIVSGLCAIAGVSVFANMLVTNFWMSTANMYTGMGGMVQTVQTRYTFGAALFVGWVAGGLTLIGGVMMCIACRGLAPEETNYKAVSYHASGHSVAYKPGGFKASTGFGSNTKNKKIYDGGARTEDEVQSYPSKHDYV
Source text: as §3
(§5) 10,000 cells were plated in 100 μL of DMEM containing 10% FBS per well in a flat-bottomed 96-well plate. After the cells adhered or were settled to the bottom of the wells overnight, the supernatant was removed on the next day. […] 100 μL of PBS was added to each well, and then reading was carried out on the cytometer.
(§6) A full-field scanning cytometer (Nexcelom, Celigo® Image Cytometer) was used to measure the readings of the experimental plate. […] The cells that bound the antibody were counted in the image obtained from the green fluorescent channel under the parameters set in accordance with the morphology and fluorescence intensity of the fluorescently labeled cells, and the adhered cells were counted in the image obtained from the bright field channel under the parameters set in accordance with the morphology of the cells.

human CLDN18.2 [10] = biological target: T2, human CLDN18.2; test: imaging cytometry (% fluorescent cells), HEK293-hCLDN18.2 cells
Source text: as §3, §1, §4

human CLDN18.1 [11] = biological target: T3, human CLDN18.1; test: imaging cytometry (% fluorescent cells), HEK293-hCLDN18.1 cells
Source text: as §3, §5, §6

| Binder | ADCC EC50, HEK293T-hCLDN18.2 target cells, human PBMC effectors (human CLDN18.2 [1]) [µg/mL] | CDC EC50, HEK293T-hCLDN18.2 target cells, human serum (human CLDN18.2 [2]) [µg/mL] | Internalization percentage (%), HEK293T-hCLDN18.2 cells, flow cytometry, 10 µg/mL antibody (human CLDN18.2 [3]) [%] | ADCC EC50, KATO-III target cells, human PBMC effectors (human CLDN18.2 [4]) [µg/mL] | CDC EC50, KATO-III target cells, human serum (human CLDN18.2 [5]) [µg/mL] | EC50 (human CLDN18.2 [6]) [µg/mL] | EC50 (human CLDN18.2 [7]) [µg/mL] | EC50 (human CLDN18.2 [8]) [µg/mL] | EC50 (mouse CLDN18.2) [µg/mL] | other results |
| --- | --- | --- | --- | --- | --- | --- | --- | --- | --- | --- |
| B1 | 0.0078 | 0.6 | -1.5 | 0.0117 | 0.52 | 0.027 | 0.012 | – | – | ADCC EC50, KATO-III target cells, human PBMC effectors (human CLDN18.2 [1]): 0.099 µg/mL; ADCC EC50, NUGC4 target cells, human PBMC effectors (human CLDN18.2 [1]): 0.047 µg/mL; CDC EC50, KATO-III target cells, human serum (human CLDN18.2 [2]): 0.18 µg/mL |
| B2 | 0.0156 | 2.4 | 2.5 | – | – | 0.069 | – | – | – | – |
| B3 | 0.0126 | 1.93 | -3.2 | – | – | 0.031 | – | – | – | – |
| B4 | 0.0249 | 5.17 | -2.2 | – | – | 0.108 | – | – | – | – |
| B5 | 0.058 | 18.2 | – | 0.788 | 34.8 | 0.536 | 0.035 | 6.54 | 0.81 | ADCC EC50, KATO-III target cells, human PBMC effectors (human CLDN18.2 [1]): 2.4 µg/mL |
| B6 | – | – | – | – | – | – | – | 0.026 | 0.691 | EC50 (human CLDN18.1 [9]): 0.092 µg/mL; EC50 (human CLDN18.2 [10]): 0.018 µg/mL; EC50 (human CLDN18.1 [11]): 0.041 µg/mL |
| B7 | – | – | – | – | – | – | – | 0.068 | 0.179 | EC50 (human CLDN18.2 [10]): 0.091 µg/mL; EC50 (human CLDN18.1 [11]): 0.714 µg/mL |
| B8 | – | – | – | 0.0028 | 0.33 | – | 0.051 | – | – | – |
| B9 | – | – | – | 0.0061 | 0.27 | – | 0.008 | – | – | – |
| B10 | – | – | – | 0.0033 | 0.27 | – | 0.047 | – | – | – |
